US20260056193A1 (SEER, published 2026)
No end group written: not given here.

Key:
Experiment in all cases: LC-MS/MS of proteins captured from pooled plasma by peptide-modified nanoparticles
[1] = biological target: T1, A0A075B6K0
T1 construct: Protein found in pooled plasma by LC-MS/MS; only the UniProt ID is printed
Description: (§1) Provided herein are proteins that are captured by surfaces modified with peptides described herein. Briefly, surfaces are modified with the 10K-peptide-MaganinII. Pooled plasma samples containing proteins and the modified surfaces are combined and the surfaces are isolated and captured proteins are analyzed by liquid chromatography tandem mass spectrometry. The nanoparticle prepared in Example 5 was used and selected proteins that include those in Table 9. These proteins were captured by the peptide-modified surface, but not surfaces without peptide modification.

[2] = biological target: T2, A0A0C4DH33
T2 construct: Protein found in pooled plasma by LC-MS/MS; only the UniProt ID is printed
T2 sequence (A0A0C4DH33 20-117): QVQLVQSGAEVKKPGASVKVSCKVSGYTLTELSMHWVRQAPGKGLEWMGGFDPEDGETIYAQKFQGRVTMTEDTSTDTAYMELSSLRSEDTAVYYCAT
Description: as §1

[3] = biological target: T3, F8W7Q4
T3 construct: Protein found in pooled plasma by LC-MS/MS; only the UniProt ID is printed
Description: as §1

[4] = biological target: T4, E7EQ47
T4 construct: Protein found in pooled plasma by LC-MS/MS; only the UniProt ID is printed
Description: as §1

[5] = biological target: T5, A0A0C4DGL1
T5 construct: Protein found in pooled plasma by LC-MS/MS; only the UniProt ID is printed
Description: as §1

T1 sequence (A0A075B6K0 20-115): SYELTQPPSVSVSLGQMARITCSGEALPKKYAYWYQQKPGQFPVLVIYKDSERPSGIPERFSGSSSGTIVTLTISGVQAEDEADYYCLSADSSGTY

B1: 10K peptide-MaganinII coupled to Surface 428 nanoparticle (Surface 428-MaganinII) (peptide)
peptide: KKKKKKKKKKGIGKFLHSAKKFGKAFVGEIMNS
modifications: not fully specified; also: coupled through Sulfo-SMCC (maleimide) to thiols of Surface 428 nanoparticle, amine carrying SMCC not given here
notes: Many copies of the peptide stand on one nanoparticle; also called SMCC-MagaininII
Median Intensity [1]: 3.81 | Median Intensity [2]: 3.89 | Median Intensity [3]: 3.55 | Median Intensity [4]: 3.5 | Median Intensity [5]: 3.62
